Data: the Human Domainome abundance scans (Beltran et al. 2025)
± gives the uncertainty stated by the source.

B1: SAM and SH3 domain-containing protein 1, residues 630 to 700; numbered along this chain, O94885 (parent)
chain: GRPPQPKSVEDLLDRINLKEHMPTFLFNGYEDLDTFKLLEEEDLDELNIRDPEHRAVLLTAVELLQEYDSN

Variants of: B1
Assay: abundance fitness (aPCA) (normalised: wild type 0, dead -1); higher = more abundant; growth selection in yeast, the domain comes from the species named
Conditions: Homo sapiens
With GRPPIPKSVEDLLDRINLKEHMPTFLFNGYEDLDTFKLLEEEDLDELNIRDPEHRAVLLTAVELLQEYDSN [Q5I] the abundance fitness was -0.02 ± 0.048.
With GRPPEPKSVEDLLDRINLKEHMPTFLFNGYEDLDTFKLLEEEDLDELNIRDPEHRAVLLTAVELLQEYDSN [Q5E] the abundance fitness was -0.481 ± 0.098.
GRPPQPKSVEDLLDRINLKEHMPTFLFNGYEDLDTFKLLTEEDLDELNIRDPEHRAVLLTAVELLQEYDSN [E40T] showed an abundance fitness of 0.398 ± 0.035.
Variant GRPPQPKSVEDLLDRINLKEHMPTFLFNGYEDLDTFKLLEEEDLDELNIRDPEHRNVLLTAVELLQEYDSN [A56N] has an abundance fitness of -0.108 ± 0.04.
In the case of GRPPQPKSVEDLLDRINLKEHMPTFLFNGYEDLDTFKLLEEEDLDELNIRDPEHRDVLLTAVELLQEYDSN [A56D], the abundance fitness is reported as -0.096 ± 0.046.
GRPPQPKSVEDLLDRINLKEHMPTFLFNGYEDLDTFKLLEEEDLDELNIRDPEHRRVLLTAVELLQEYDSN [A56R] showed an abundance fitness of 0.191 ± 0.034.
GRPPQPKSVEDLLDRINLKYHMPTFLFNGYEDLDTFKLLEEEDLDELNIRDPEHRAVLLTAVELLQEYDSN [E20Y] showed an abundance fitness of -0.84 ± 0.1.
Variant GRPPQPESVEDLLDRINLKEHMPTFLFNGYEDLDTFKLLEEEDLDELNIRDPEHRAVLLTAVELLQEYDSN [K7E] has an abundance fitness of -0.002 ± 0.069.
GRPPQPKSVEDLLDRINLKEHMPTFLFNGYEDLDTFKLLEEEDLDELNIRDPEHRAVLLMAVELLQEYDSN [T60M] gave an abundance fitness of -0.385 ± 0.055.
Work on GRPPQPKSVEDLLDRINLKEHMPTFLFNGYEDLDTFKLIEEEDLDELNIRDPEHRAVLLTAVELLQEYDSN [L39I] yielded an abundance fitness of 0.058 ± 0.041.
GRPPQPKSVEDLLDRINLKEHMPTFLFNGYEDLDTFKLLEEEDLDELWIRDPEHRAVLLTAVELLQEYDSN [N48W] showed an abundance fitness of -0.775 ± 0.15.
With GRPPQPKSVEDLLDRINLKEHMPTFLFNGYEDLDTFKLLEEEDLDELTIRDPEHRAVLLTAVELLQEYDSN [N48T] the abundance fitness was -0.916 ± 0.2.
GRPPQPKSVEDLLDRINLKEHMPTFLFNGYEDLDTFKLLEEEDLDELNIRDPEHRAVLLTAVELLQEYDSE [N71E] gave an abundance fitness of 0.163 ± 0.074.
GRPPQPKSVEDLLDRINLKEHMPTFLFNGYPDLDTFKLLEEEDLDELNIRDPEHRAVLLTAVELLQEYDSN [E31P] showed an abundance fitness of -0.15 ± 0.039.
In the case of GRPPQPKSVEDLLDRINLKEHMPTFLFNGYEDLDTFKLLEEEDLDELNIRDPEHRASLLTAVELLQEYDSN [V57S], the abundance fitness is reported as 0.243 ± 0.034.
Work on GRPPQPKSVEDLLDRINLKEHMPTFLFNGYEDLDTFKLLEEEDLDELNIRDPEHRARLLTAVELLQEYDSN [V57R] yielded an abundance fitness of 0.418 ± 0.034.
GRPPQPKSVEDLLDRINLKEHMPTFLFNGYEDLDTFKLLEEEDLDELNIRLPEHRAVLLTAVELLQEYDSN [D51L] gave an abundance fitness of -0.632 ± 0.042.
Work on GRPPQPKSVEDLLDRINLKEHMPTFLFNGYEDLDTFKLLEEEDLDELNIRDPEHRAVLLTAVELLQEYDFN [S70F] yielded an abundance fitness of -0.508 ± 0.23.
In the case of GRPPQPKSVEDLLDRINLKEHMPTFLFNGYEDLDTFKLLEEEDLDELNIRDPEHRAVLLTAVELLQESDSN [Y68S], the abundance fitness is reported as 0.14 ± 0.038.
In the case of GRPPQPKSVEDLLDRENLKEHMPTFLFNGYEDLDTFKLLEEEDLDELNIRDPEHRAVLLTAVELLQEYDSN [I16E], the abundance fitness is reported as -0.595 ± 0.1.
Variant GRPPQPKSVEDLLDRINLKEHMPTFLFNGYEDLDTFKLLEEEDLDELNIRDPEHRAVLLTAVELSQEYDSN [L65S] has an abundance fitness of -0.69 ± 0.048.
Work on GRPPQNKSVEDLLDRINLKEHMPTFLFNGYEDLDTFKLLEEEDLDELNIRDPEHRAVLLTAVELLQEYDSN [P6N] yielded an abundance fitness of -0.792 ± 0.11.
GRPPQMKSVEDLLDRINLKEHMPTFLFNGYEDLDTFKLLEEEDLDELNIRDPEHRAVLLTAVELLQEYDSN [P6M] gave an abundance fitness of -0.264 ± 0.07.
GRPPQPKSVEDLLDRINLKEHMPTFLFNGYEDLDTFNLLEEEDLDELNIRDPEHRAVLLTAVELLQEYDSN [K37N] gave an abundance fitness of -0.799 ± 0.074.
GRPPQPKSVEDLLDRINLKEHMPTFLFNGYEDLDTFLLLEEEDLDELNIRDPEHRAVLLTAVELLQEYDSN [K37L] gave an abundance fitness of -0.555 ± 0.053.
Variant GRPPQPKKVEDLLDRINLKEHMPTFLFNGYEDLDTFKLLEEEDLDELNIRDPEHRAVLLTAVELLQEYDSN [S8K] has an abundance fitness of -0.759 ± 0.11.
In the case of GRPPQPKRVEDLLDRINLKEHMPTFLFNGYEDLDTFKLLEEEDLDELNIRDPEHRAVLLTAVELLQEYDSN [S8R], the abundance fitness is reported as -0.836 ± 0.082.
GRPPQPKSVEDLLDRINLKEHMPTFLFNGYEDLDTFKLLEEEDQDELNIRDPEHRAVLLTAVELLQEYDSN [L44Q] showed an abundance fitness of -0.873 ± 0.089.
Variant GCPPQPKSVEDLLDRINLKEHMPTFLFNGYEDLDTFKLLEEEDLDELNIRDPEHRAVLLTAVELLQEYDSN [R2C] has an abundance fitness of -0.971 ± 0.13.
In the case of GRPPQPKSVEDLLDRINLKESMPTFLFNGYEDLDTFKLLEEEDLDELNIRDPEHRAVLLTAVELLQEYDSN [H21S], the abundance fitness is reported as -0.785 ± 0.05.
With GRPPQPKSVEDLLDRINLKEVMPTFLFNGYEDLDTFKLLEEEDLDELNIRDPEHRAVLLTAVELLQEYDSN [H21V] the abundance fitness was -0.607 ± 0.056.
Variant GRPPQPKSVEDLLDRINLKEHMPTFLFNGYEDRDTFKLLEEEDLDELNIRDPEHRAVLLTAVELLQEYDSN [L33R] has an abundance fitness of -0.926 ± 0.068.
With GRPPQPKSVEDLLDRINLKEHMPTFLFNGYEDQDTFKLLEEEDLDELNIRDPEHRAVLLTAVELLQEYDSN [L33Q] the abundance fitness was -0.73 ± 0.11.
With GRPPQPKSVEDLLDRINLKEHMPTFQFNGYEDLDTFKLLEEEDLDELNIRDPEHRAVLLTAVELLQEYDSN [L26Q] the abundance fitness was -0.11 ± 0.049.
Work on GRPPQPKSVEDLLDRINLKEHMPTFLMNGYEDLDTFKLLEEEDLDELNIRDPEHRAVLLTAVELLQEYDSN [F27M] yielded an abundance fitness of 0.327 ± 0.041.
For GRPPQPKSVEGLLDRINLKEHMPTFLFNGYEDLDTFKLLEEEDLDELNIRDPEHRAVLLTAVELLQEYDSN [D11G], the abundance fitness was -0.649 ± 0.08.
For GRPPQPKSVETLLDRINLKEHMPTFLFNGYEDLDTFKLLEEEDLDELNIRDPEHRAVLLTAVELLQEYDSN [D11T], the abundance fitness was -0.818 ± 0.064.
GRPPQPKSVEDLLDRINLKEHMPKFLFNGYEDLDTFKLLEEEDLDELNIRDPEHRAVLLTAVELLQEYDSN [T24K] gave an abundance fitness of -0.079 ± 0.046.
